From the RNAGym collection of RNA variant scans (doi:10.1021/acssynbio.7b00057) come the findings set out here.

B1: Pistol ribozyme (parent)
chain: GGGUCGUUGUUCCAUAAUCGCGUGGAUAUGGCACGCAAGUUUCUACCGGGCACCGUAAAUGUCCGACUGGAGCCGUUCGGGCGGCUAUAAACAGACCUCAGGCCCGAAGCGUGGCGGCACCUGCCGCCGGUGGUAAAAAAGAUCGGAAGAGCACACGUCU

In this data set the parent is B1. Put plainly: aptazyme ON/OFF ratio, guanine; higher = stronger switching; co-transcriptional cleavage with and without guanine.
Consider U7C G9U U10A U11G C12U C13A, for which the “aptazyme ON/OFF ratio” value came to 1.09.
Regarding U8C G9C U10A U11G C12U, the “aptazyme ON/OFF ratio” value came to 1.22.
To U7A U8C U10G U11A C12A belongs 1.42; to U7G U8A G9U U10C U11C, 1.06.
The value for U7G U8C G9U U10A U11A C12U C13G was 1.16; that for U8A G9U U11A C13A was 1.1.
To U7C U8A G9A U10A U11C C12A belongs 1.16.
With U7C U8G G9A U10C U11G C12G C13G, the “aptazyme ON/OFF ratio” value was 1.27.
To U7C U8C G9A U10C U11A C12U C13G belongs 1.27.
To U7A U8C G9U U10C U11G C13G belongs 1.31.
To U7C U8G G9A U10A U11A C12A belongs 1.26; to U7G U8C C13A, 1.21; to U8G G9A U10G U11A C12U C13G, 1.33.
With U7G U8G G9U U10C U11G C13U, the “aptazyme ON/OFF ratio” value turned out to be 1.28.
Take G9U U10C U11C C12G C13U: the “aptazyme ON/OFF ratio” value is 1.1.
To U7A U8G G9U U10C U11A C13A belongs 1.44.
The value for U7A U8C U10C U11G C12A C13G was 1.28.
To U7G U8A G9U U10A belongs 1.46; to U7G U8G G9U U11G C12A C13A, 1.1.
U7C U8A G9C U10A U11C C12A C13U: the “aptazyme ON/OFF ratio” value amounted to 1.15.
To U8C U11G C12U C13A belongs 1.08; to U7C U8G U10G U11C C12U C13U, 1.37.
Consider U7G G9C U10A U11G C12U C13G, for which the “aptazyme ON/OFF ratio” value stood at 1.2.
To U7G U8G U10A U11A C12U C13A belongs 1.44; to U7C G9A U10G U11G C12U C13A, 1.14.
To U7A U8G U11G C12A C13G belongs 1.33; to U7A U8A G9A U10C C12A C13G, 1.03; to U7A U8A G9C C12A C13U, 1.24.
To U8C G9U U11C C12A C13A belongs 1.11.
For U8G C13A, the “aptazyme ON/OFF ratio” value turned out to be 1.3.
The value for U8G G9A U10C U11C C13G was 1.03; that for U7C U8G G9A U11A C12U C13A was 1.19; that for U8G G9C U10C C12U C13A was 1.06.
To U7G U8A G9A C12G C13A belongs 1.13; to U7A U10G U11C C12U C13G, 1.41.
To U8C U10C C13G belongs 1.26.
Take U7A U8G G9C U11C C12U: the “aptazyme ON/OFF ratio” value came out at 1.49.
To U7C U8G G9C U10G U11G C13U belongs 1.11; to U7G U8C G9C U11A C12G C13G, 1.16.
Regarding U7A G9U U10C U11C C12G C13A, the “aptazyme ON/OFF ratio” value was determined as 1.02.
U7A U8A G9U U10G C12G C13G: the “aptazyme ON/OFF ratio” value was 1.08.
To U8C G9U U10A U11C C12G belongs 1.21.
To U7G U8A U10G U11C C12U C13G belongs 1.52; to U7C U8C U10G C12G, 1.12; to U7C U8C G9A U10C U11C C12G C13U, 1.29.
The value for U7C U8G G9U U10A U11C C13G was 1.05; that for U7C U10A U11G C12A C13A was 1.17; that for U7C U8C G9U U10A U11C C13G was 1.07.
U8G G9A U10A U11A C12A: the “aptazyme ON/OFF ratio” value turned out to be 1.21.
Turning to U7A U8G G9A U10A U11A C12G, the “aptazyme ON/OFF ratio” value stood at 1.46.
The value for U7G U8C G9A U10C U11G C12A C13A was 1.11.
Turning to U7C U8G U10A U11C C12G C13A, the “aptazyme ON/OFF ratio” value is 1.14.
To U7G U8A G9A U10C U11G C12U C13G belongs 1.14; to U7C U8A G9C U11G, 1.13.
To U7A G9A U10C C13G belongs 1.06; to C12A C13U, 1.9; to U7C G9U U10A C12A, 1.82.
To U8A U10G U11C C13U belongs 1.04; to U7A U8G G9A U10G C12G, 1.36; to U8G G9U U11A C12U C13G, 1.22.
Consider U8C G9U U11A C12G C13G, for which the “aptazyme ON/OFF ratio” value was 1.12.
The value for U8C G9A C12G C13A was 1.23; that for U7G U8C G9A U11A C12A C13A was 1.08; that for U7C U8G U10A U11G C12U C13U was 1.17.
The value for U7G U8A G9C U11G C12G C13U was 1.03.
To U7A U10A U11C C12G belongs 1.1; to U7A U8C U10A C12G, 1.18; to G9U U10C C13U, 1.72.
Regarding U10C C12A C13A, the “aptazyme ON/OFF ratio” value is 1.23.
As for U7G U8C U10A U11A C13G, the “aptazyme ON/OFF ratio” value is 1.18.
To G9A U10G U11C C12U C13A belongs 1.26; to U7G U8G G9U U10C U11C C12A C13A, 1.33.
Take U7G U8A G9A U10G U11C C12A C13A: the “aptazyme ON/OFF ratio” value stood at 1.1.
With U7A U8C G9C U10C U11A C12G C13U, the “aptazyme ON/OFF ratio” value is 1.1.
To U7C U8G G9A U10C U11C C12A belongs 1.05; to U7G U8A G9U U11G C12U C13G, 1.04; to U7A U8G G9C C12G C13U, 1.34.
To U7G G9C U11A C12A C13A belongs 1.35.
The value for U7G U8C G9A U11A was 2.48; that for U7A G9A C12G C13G was 1.24.
Take U8G G9C U10C U11G C13G: the “aptazyme ON/OFF ratio” value is 1.1.
The value for U7A U10A U11G C12G C13A was 1.06; that for U7C U8G G9C U10A C12A C13U was 1.18.
